Results from patent US20230279105A1 (SINGLE CELL TECHNOLOGY, published 2023).
Changes are numbered by the printed parent chain.

B1: SCT-Fa076 (antibody, V domains shown)
VH: EVQVLETGGGLVQPGGSRGLSCEGSGFTFSGFWMSWVRQTPGKTLEWIGDINSDGSTIHYGPSMKDRFTIFRDNDKNTLYLQMNNVRSEDTAKYFCMSLLLNVWGTGTTVTVSS
VL: DIQMTQSPSSLSASLGERVSLTCRASQEISGYLSWLQQKPDGTIKRLISRASSLDFGVPKRFRGSRSGSDYSLTISSLESEDFADYYCLQYANYPLTFGAGTKLELK
notes: murine IgG
B2: SCT-Fa092 (antibody, V domains shown)
VH: QIQLVQSGPEMKKPGETVKISCKASGYTFRTYGMSWVKQAPGKGLEWMGWINTYSGEPTYADDFKGRFAFSLETSANTAYLQINNLKNEDTATFFCARAQHYFDWWGQGTTLTVSS
VL: DIKMTQSPSSMYASLGERVTITCKASQDIDSYLNWFQQKPGKSPKTLIYRATRLVDGVPSRFSGSGSGQDYSLTISSLEYEDMGIYYCLQYDEFPYTFGGGTKLEIK
notes: murine IgG
B3: SCT-Fa091 (antibody, V domains shown)
VH: B2 VH
VL: B2 VL with S31R
notes: murine IgG
B4: SCT-Fa090 (antibody, V domains shown)
VH: B2 VH with T28I
VL: B2 VL
notes: murine IgG
B5: SCT-Fa094 (antibody, V domains shown)
VH: QVLLQQPGAELVRPGTSVKLSCKASGYTFTNFWMHWVKQRPGQGLEWIGVIDPSDISTHYNQNFKGKAILTVDTSSSSAYMQLSSLTSEDSAVYYCARNDYDGGYFDYWGQGTTLTVSS
VL: DVVMTQTPLSLPVSLGDQASISCRSSQSLVHGNGNTYLHWYLQKPGQSPKLLIYTVSNRFSGVPDRFSGSGSGTDFTLKISRVEAEDLGVYFCSQTIHAPWTFGGGTKLEIK
notes: murine IgG
B6: SCT-Fa077 (antibody, V domains shown)
VH: EVRLVESEGGLVQPGSSMKLSCTASGFTFSDYYMAWVRQVPEKGLEWVANINYDGTNTYYLDSLKSRFIISRDNAKNILYLQMSGLKSEDTATYYCGRGIYYYGRSHAMDYWGQGTSVTVSS
VL: DILMTQSPSSMSVSLGDTVSITCHASQGINNNVGWLQQKPGKSFKGLIYHGTNLEDGVPSRFSGSGSGADYSLTIYSLESEDFADYYCVQYDQFPPTFGGGTKLEIK
notes: murine IgG
B7: SCT-Fa095 (antibody, V domains shown)
VH: QVQLKESGPGLVAPSQSLSITCTVSGFSLTSSVISWVRQPPGKGLEWLGIIWAGGDTNYNSALKSRLSISKDNSKSQVFLKMNSLQTDDTARYYCARNLNAMDYWGQGTSVTVSS
VL: DVLMTQTPLSLTVSLGDQASISCRSSQSIVHSNGNTYLEWFLQKPGQSPKLLIYKVSNRFSGVPDRFSGSGSGTDFTLKISRVEAEDLGVYYCFQGSHVPWTFGGGTKLEIK
notes: murine IgG
B8: SCT-Fa088 (antibody, V domains shown)
VH: QIQLQQSGPELVKPGASVKISCKASGYTFTDYYINWVKQRPGQGLEWIGWIYPGSGNTKYNEKFKGKATLTVDTSSSTAYMQLSSLTSEDSAVYFCARAYDYGFAYWGQGTLVTVSA
VL: SIVMTQTPKFLLVSAGDRVTITCKASQSVSHGVTWYQQKPGQSPKLLISYASNRYTGVPDRFTGSGYGTDFTFTISTVQAEDLAVYFCQQDYSSPYTFGGGTKLEIK
notes: murine IgG
B9: SCT-Fa087 (antibody, V domains shown)
VH: B8 VH with Q82H
VL: B8 VL with H31Y, A51S, Y67S
notes: murine IgG
B10: SCT-Fa086 (antibody, V domains shown)
VH: B8 VH with S77N, A105P
VL: B8 VL with V29M, S30N, H31N, T77A
notes: murine IgG

Biological target: T1, Human TIM-3 Human Fc tagged protein (human, fluorescently labeled with HiLyte Fluor 555 (sites not given))
T1 construct: Bought construct; also called TIM-3 protein tagged with human Fc; ACROBiosystems catalog no: TM3-H5258
Experiment: capture slide probed with labeled TIM-3-Fc;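 further: IgG from single CD138-enriched plasma cells, isolated from lymphocytes, immobilized on a derivatized glass slide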

binding result | Binder
binds | B1
binds | B2
binds | B3
binds | B4
binds | B5
binds | B6
binds | B7
binds | B8
binds | B9
binds | B10
